This data set deals with T1, PsrA (Pseudomonas aeruginosa PAO1) (UniProt Q9HZJ9).
T1 sequence: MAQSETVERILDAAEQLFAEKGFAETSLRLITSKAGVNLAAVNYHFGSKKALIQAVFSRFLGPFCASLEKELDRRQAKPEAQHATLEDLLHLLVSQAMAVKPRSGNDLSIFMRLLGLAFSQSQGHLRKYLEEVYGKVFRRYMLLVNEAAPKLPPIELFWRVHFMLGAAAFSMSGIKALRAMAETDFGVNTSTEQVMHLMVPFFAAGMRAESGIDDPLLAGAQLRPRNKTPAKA
The data set is described as follows: EMSA.

Binding data for 5 sequences are collected here from PMC11233452.

Take “CCTGTCGGCGTTTCATGGAATTGTCACAACCGCACAGTATCGCTTGCGGTAAAGCGGCCCAGGTGGTCGAACGTTGTCATAGGGAGGGGGATGCTCGATGGCTGAAGGCTGCGTCCTGAACGGTGCTGGCATAACAGATAGGGTTGCCATGATTTTGCCGTATCGGCAAGGCTGCGCGCTTGACAGCGTCATACCCCGGGCCAATTCTGCTGTGATGCATTTTATCGATCAGGGCTTACTGCAATGAGGAATGACGGAGGCTTTTTGCTGTGGTGGGACGGTTTGCGTAGCGAGATG (double strand) [PrhlR 258-544 bp]”: the binding entry is given as “no binding”.

For the sequence “CGCTTCCCTTGATCGGGTCAGGTTGCCGCTACTGTGGAAGAAGCGTCGAGGACTCGATAGATAGCGCCCGAGTGTTTCAACTTGTCTTCTGGATGACGTTTTCATCGGGGAAACCTCCCGTCGGTCAGTGAAGCGCAAGGGCTGGCGTGCGAGGGTGGAATCGGCCGCCGGCTCGCTTTCTGCGCGGCGGGCGCACGGCACGGGGAGTCGTCGTTTTGGAGGTGAGGGATGACGGCTCTGTTTCAGGA (double strand) [PmvfR 223-470 bp]”, the binding result is given as “no binding”.

As for “GCGCACGGCACGGGGAGTCGTCGTTTTGGAGGTGAGGGATGACGGCTCTGTTTCAGGATATTTTTATAATTATGTGAAAGAAGAGCTTATTTCAACGAAATATGTTTCATATTGCTCGTAAATTCGACGAAAAGAAAATCCGGATATTTACCGGTTATTTAACGTTAATACCAAGGGCCTAATACCAAAGTATTAACGCTGGCATGCCGGCATGTCGTGTTCGGTCGTGGAGCGAGCCGAGCCAGGAACGGTTCTAAGAAACGA (double strand) [PmvfR 17-280 bp]”, the binding entry is “no binding”.

As to “TGGCGATGGGCCGACAGTGAACCCGGGGACCAGGTGTGACTGGGTATTCAGTTCGCATAAAATGTGATCTAGATCACATTTAAACGTTTGCTTACCCTCTAGGACGGGTATCGTACTAGGTGCATCAAACGCTGCGGTCTATTGTTAAGTGGGACTGAAATGTGCCTTTCCGGCACAACGCCAACTCTATAG (double strand) [PlasR 153-344 bp]”, the binding entry is given as “binds”.

Take “TGTGCGGTTGTGACAATTCCATGAAACGCCGACAGGCCGCCGCCATGGCCGGGTCCTCGAGCAAGCGCCACAGCGCCCCGCGCAACTCCTGCTCGCGCAACGGCACGCCCAGGCGCATCCCGCAGCCGAGCCGGACCAGCCGTTCGGCATTGTCGAACTGGTCGTGGGCACAGGGCAGCAGCACCTGCGGCACCCCCGCCGCCAAGGCTAGGCTCATGGCGCCGATACCGCCCGGATGGACCAGCCCGGCGCACGATGGCAGCAAGGCTCCCAGTGGCGCGTA (double strand) [PrhlR 11-293 bp]”: the binding result was “no binding”.
